Laboratory results from PMC5036643.
Like-named read-outs stand apart in the source and are kept apart here.

Assays:
Assay in all cases: single-molecule bead assay
[1] = target: Microtubules of porcine brain tubulin, tetramethylrhodamine-labelled, taxol-stabilised (porcine) (UniProt P02550)
[2] = target: Microtubules of porcine brain tubulin, tetramethylrhodamine-labelled, taxol-stabilised (porcine) (UniProt P02550); remark: listed apart in the source
[3] = target: Microtubules of porcine brain tubulin, tetramethylrhodamine-labelled, taxol-stabilised (porcine) (UniProt P02550); remark: listed apart in the source
[4] = target: Microtubules of porcine brain tubulin, tetramethylrhodamine-labelled, taxol-stabilised (porcine) (UniProt P02550); remark: listed apart in the source
[5] = target: Microtubules of porcine brain tubulin, tetramethylrhodamine-labelled, taxol-stabilised (porcine) (UniProt P02550); remark: listed apart in the source
[6] = target: Microtubules of porcine brain tubulin, tetramethylrhodamine-labelled, taxol-stabilised (porcine) (UniProt P02550); remark: listed apart in the source
[7] = target: Microtubules of porcine brain tubulin, tetramethylrhodamine-labelled, taxol-stabilised (porcine) (UniProt P02550); remark: listed apart in the source
[8] = target: Microtubules of porcine brain tubulin, tetramethylrhodamine-labelled, taxol-stabilised (porcine) (UniProt P02550); remark: listed apart in the source

Conventional kinesin (native, from bovine brain) (complex)
average duration (time between attachment and detachment) [1]: 0.92 s
average duration (time between attachment and detachment) [2]: 0.8 s
average duration (time between attachment and detachment) [3]: 0.69 s
average duration (time between attachment and detachment) [4]: 1.53 s
average duration (time between attachment and detachment) [5]: 1.11 s
average duration (time between attachment and detachment) [6]: 1.01 s
average duration (time between attachment and detachment) [7]: 1.19 s
average duration (time between attachment and detachment) [8]: 1.03 s
